Laboratory results reported in patent US20050182242A1, “Global analysis of protein activities using proteome chips” (priority 2001, published 2005).

Tests used:
Settings in all cases: liposome binding signal on yeast proteome chip, Cy3-streptavidin detection
PI(3,4,5)P3 liposomes = experiment: Yeast proteome chip probed with PI(3,4,5)P3 liposomes
PI(4,5)P2 liposomes = experiment: Yeast proteome chip probed with PI(4,5)P2 liposomes
PI(3)P liposomes = experiment: Yeast proteome chip probed with PI(3)P liposomes
[1] = system: phosphatidylcholine (PC) liposomes; experiment: Yeast proteome chip probed with PC liposomes
Procedure, shortened: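 Binding of arrayed yeast proteins to sonicated PC liposomes, with or without 5% (w/w) phosphoinositide, is scored by streptavidin fluorescence on the biotinylated lipid tracer.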

PI(4)P liposomes = experiment: Yeast proteome chip probed with PI(4)P liposomes
PI(3,4)P2 liposomes = experiment: Yeast proteome chip probed with PI(3,4)P2 liposomes

Molecule | PI(3, 4, 5)P3 (PI(3,4,5)P3 liposomes) | PI(4, 5)P2 (PI(4,5)P2 liposomes) | PI(3)P (PI(3)P liposomes) | PC [1] | PI(4)P (PI(4)P liposomes) | PI(3, 4)P2 (PI(3,4)P2 liposomes)
BUD32: yeast GST-HisX6 fusion protein on proteome chip (protein, UniProt P53323 1-261, looked up, GST-His6 fusion tag, yeast GST-HisX6 fusion protein on proteome chip) EKC/KEOPS complex subunit …: MTQEFIDKVSSYLTPDVDIAPISQGAEAIVFTTTTHPYLPRAKDSHQKYIIKYRPPKRYRHPQIDQALTKHRTLNESRLLAKLYLIPGLCVPQLIACDPYNGFIWLEFLGEDLPGGHGFSNLKNFLWMHDQDPYSDLVATTLRKVGRQIGLLHWNDYCHGDLTSSNIVLVRDGARWTPHLIDFGLGSVSNLVEDKGVDLYVLERAILSTHSKHAEKYNAWIMEGFEEVYREQGAKGAKKLKEVTKRFEEVRLRGRKRSMLG | 108.67 | 282.63 | 318.00 | 621.00 | 666.29 | 249.28
SDS22: yeast GST-HisX6 fusion protein on proteome chip (protein, UniProt P36047 1-338, looked up, GST-HisX6 tag, yeast GST-HisX6 fusion protein on proteome chip) Protein phosphatase 1 …: MDKNSVNKDSEEKDERHKIEVVDDTNPDFITADSELTQDLPDDVEVIDLVHLKIKSLEDLNLYRFKNLKQLCLRQNLIESISEVEVLPHDKIVDLDFYDNKIKHISSNVNKLTKLTSLDLSFNKIKHIKNLENLTDLENLYFVQNSISKIENLSTLKSLKNLELGGNKVHSIEPDSFEGLSNLEEIWLGKNSIPRLINLHPLKNLKILSIQSNKLKKIENLEELTNLEELYLSHNFITKIEGLEKNLKLTTLDVTSNKITSLENLNHLSNLTDIWASFNKIDQSFESLGENLSALSRLETIYLEGNPIQLENKTSYRRKLTMNLPPSLQKIDATYIRG | −2.14 | 14.15 | 2.00 | −4.70 | 13.28 | 4.71
APG1: yeast GST-HisX6 fusion protein on proteome chip (protein, UniProt P53104 1-897, looked up, GST-His6 tag, yeast GST-HisX6 fusion protein on proteome chip) Serine/threonine-protein …: MGDIKNKDHTTSVNHNLMASAGNYTAEKEIGKGSFATVYRGHLTSDKSQHVAIKEVSRAKLKNKKLLENLEIEIAILKKIKHPHIVGLIDCERTSTDFYLIMEYCALGDLTFLLKRRKELMENHPLLRTVFEKYPPPSENHNGLHRAFVLSYLQQLASALKFLRSKNLVHRDIKPQNLLLSTPLIGYHDSKSFHELGFVGIYNLPILKIADFGFARFLPNTSLAETLCGSPLYMAPEILNYQKYNAKADLWSVGTVVFEMCCGTPPFRASNHLELFKKIKRANDVITFPSYCNIEPELKELICSLLTFDPAQRIGFEEFFANKVVNEDLSSYELEDDLPELESKSKGIVESNMFVSEYLSKQPKSPNSNLAGHQSMADNPAELSDALKNSNILTAPAVKTDHTQAVDKKASNNKYHNSLVSDRSFEREYVVVEKKSVEVNSLADEVAQAGFNPNPIKHPTSTQNQNVLLNEQFSPNNQQYFQNQGENPRLLRATSSSSGGSDGSRRPSLVDRRLSISSLNPSNALSRALGIASTRLFGGANQQQQQQQITSSPPYSQTLLNSQLFHELTENIILRIDHLQHPETLKLDNTNIVSILESLAAKAFVVYSYAEVKFSQIVPLSTTLKGMANFENRRSMDSNAIAEEQDSDDAEEEDETLKKYKEDCLSTKTFGKGRTLSATSQLSATFNKLPRSEMILLCNEAIVLYMKALSILSKSMQVTSNWWYESQEKSCSLRVNVLVQWLREKFNECLEKADFLRLKINDLRFKHASEVAENQTLEEKGSSEEPVYLEKLLYDRALEISKMAAHMELKGENLYNCELAYATSLWMLETSLDDDDFTNAYGDYPFKTNIHLKSNDVEDKEKYHSVLDENDRIIIRKYIDSIANRLKILRQKMNHQN | 92.70 | 319.65 | 72.00 | 464.28 | 668.47 | 138.45
OPY1: yeast GST-HisX6 fusion protein on proteome chip (protein, UniProt P38271 1-328, looked up, GST-His6 fusion tag, yeast GST-HisX6 fusion protein on proteome chip) Pleckstrin homology domain …: MIAGATAPSSQHEILIASNLIKKPSTSQNKTPTAQSSSGNNGAADGAPQGYHHHHHHHRHLWWPRTTDHQYWCVLRKNQFAYYKTRDEREAISVIPRFDILNFKISELDGILTVYTPSKDLIFKFPRGQNEKVGMELMHNWKIALEKFLSSPSGNESVTTGSDYDEEEDDDDLIVVDEKAGPSSSKHSCSLTMDEQLSREDKEFYRMFDPRNAEHQVCSGILYTKVKKKKLFNRAKWQKFNVELTNTSFNLYSFKTGKLKKSIKLDKIIDCIELDNNSKMKNDDTNFALITFDERLSFKAANDQDMVDWIINFKSGILIRKKLKAENI | 41.17 | 37.89 | 17.50 | 250.04 | 188.13 | 179.27
LYS1: yeast GST-HisX6 fusion protein on proteome chip (protein, UniProt P38998 2-373, looked up, GST-HisX6 tag, yeast GST-HisX6 fusion protein on proteome chip) Saccharopine dehydrogenase …: AAVTLHLRAETKPLEARAALTPTTVKKLIAKGFKIYVEDSPQSTFNINEYRQAGAIIVPAGSWKTAPRDRIIIGLKEMPETDTFPLVHEHIQFAHCYKDQAGWQNVLMRFIKGHGTLYDLEFLENDQGRRVAAFGFYAGFAGAALGVRDWAFKQTHSDDEDLPAVSPYPNEKALVKDVTKDYKEALATGARKPTVLIIGALGRCGSGAIDLLHKVGIPDANILKWDIKETSRGGPFDEIPQADIFINCIYLSKPIAPFTNMEKLNNPNRRLRTVVDVSADTTNPHNPIPIYTVATVFNKPTVLVPTTAGPKLSVISIDHLPSLLPREASEFFSHDLLPSLELLPQRKTAPVWVRAKKLFDRHCARVKRSSRL | 61.20 | 22.21 | 3.50 | 255.33 | 198.15 | 81.94
AKL1: yeast GST-HisX6 fusion protein on proteome chip (protein, UniProt P38080 2-1108, looked up, GST-His6 tag, yeast GST-HisX6 fusion protein on proteome chip) Serine/threonine-protein …: SITNGTSRSVSAMGHPAVERYTPGHIVCVGTHKVEVVNYLAEGGFAQIYVVKFLEYLNEFDNTASVPLKIGDVACLKRVLVQDENGLNEMRNEVEVMKKLKGAPNIVQYFDSNASRRRDGVQGFEVLLLMELCPNKSLLDYMNQRLSTKLTEAEIVKIMYDVALSISQMHYLPVSLIHRDIKIENVLVDAKNNFKLADFGSTSTCFPIVTTHQDIALLTQNIYVHTTPQYRSPEMIDLYRCLPINEKSDIWALGVFLYKLLFFTTPFEMTGQFAILHSKYEFPVNKYSSKLINLIIIMLAENPNLRPNIYQVLYHLCEILNVEVPIEDKYAEGAYNFSKYTQFQNKLQNVQLQMYQLQQKKIMQNNKLSDSEENLLNDMFLSSFEISSKLPMNASDGHAAVSRIPSQNVGQELEEEKESQSDQRKSTLSEDKSSRTTSNANSSGTANNPQEINTIQSPGIEDKSIFENKTPGELYYPSVSELDTYLDKELVKQSSDPTISEQSPRLNTQSLPQRQKSTSSYSSGGRSMKSTSYGAATIGSDEALANEKTAGINKMKQHKSNNPFPKMNVAYHSTNELSNDASNFFLEEQQQGQRYQQAQNQTGTQGNTFPDESQYQSRVEQQQQQQDQPKGPANYSQRNFYTGRDRSNKPMQLGGTIAGDSGNRRVNFQNISQNYATNSQSGYLPSQNSPAIPMVRPVISMNQQQAQQIQAQQLQAQQMQAKQQMQAKQQMQVQQQLQVQQQMQIQNANNNGTYVSDRTNHTTEDMRNAQGGEPPILAGNSANEPMHSSSKNEALLIELSPLKEDAGKQSFQDTNEPQTGGIEDAGGSGTIKGSNNNRNGVLNLSLNEMDLSRDDTGAAVSSFSSSSSSASIQQAKLSGRKGSSKRNNYSTDELGDSMVSSESIDIDLDDARRGKTAERRPLHNERGHKDQARSSDASKSNQFKSKDFSSVSTRQPRQSLDLNFQEVNLSSPTLTQEHRNKNDSPAPNSHHSYRVSPHASTAITENKRHSTGHELSTRSNGKHETHRTGSKQRHDLERYRHSKDKDSNSSITISTSTPSEMRKSFARARQSLDLERVRREAMASSASSSGGSNGKRRSFFSVFRSEK | 93.38 | 57.48 | 19.50 | 207.20 | 189.44 | 132.49
